Source: the supplement of paper PMC10567573

B1: RHOBTB3 (parent)
chain: QLQSMPSRELASMNLDIVDLLKKA

Variants of: B1
Test: protein stability index of a GFP-peptide fusion (GPS, HEK-293T) (PSI 1-6); higher = more stable
Conditions: c terminus: a fixed tail appended
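Further: lentivirally expressed fusions sorted by FACS into six bins by GFP to DsRed ratio, PSI derived from sequencing read proportions per bin multiplied by bin number.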

Variant | protein stability index
QLQSMPSRELASMNLAIVDLLKKA [D16A] | 2.15
QLQSMPSRELASMNLVIVDLLKKA [D16V] | 2.22
QLQSMPSRELASMNLMIVDLLKKA [D16M] | 2.53
QLQSMPSRELASMNLTIVDLLKKA [D16T] | 3.05
QLQSMPSRELASMNLFIVDLLKKA [D16F] | 2.09
QLQSMPSRELASMNLRIVDLLKKA [D16R] | 2.5
QLQSMPSRELASMNLKIVDLLKKA [D16K] | 2.91
QLQSMPSRELASMNLYIVDLLKKA [D16Y] | 2.62
QLQSMPSRELASMNLPIVDLLKKA [D16P] | 2.75
QLQSMPSRELASMNLIIVDLLKKA [D16I] | 2.67
QLQSMPSRELASMNLGIVDLLKKA [D16G] | 3.63
QLQSMPSRELASMNLHIVDLLKKA [D16H] | 2.76
QLQSMPSRELASMNLCIVDLLKKA [D16C] | 3.25
QLQSMPSRELASMNLLIVDLLKKA [D16L] | 2.63
QLQSMPSRELASMNLNIVDLLKKA [D16N] | 2.88
QLQSMPSRELASMNLEIVDLLKKA [D16E] | 3.63
QLQSMPSRELASMNLQIVDLLKKA [D16Q] | 3.57
QLQSMPSRELASMNLSIVDLLKKA [D16S] | 3.23
QLQSMPSRELASHNLDIVDLLKKA [M13H] | 3.59
QLQSMPSRELASQNLDIVDLLKKA [M13Q] | 3.79
QLQSMPSRELASYNLDIVDLLKKA [M13Y] | 3.17
QLQSMPSRELASCNLDIVDLLKKA [M13C] | 3.74
QLQSMPSRELASDNLDIVDLLKKA [M13D] | 3.96
QLQSMPSRELASPNLDIVDLLKKA [M13P] | 4.01

Variant | protein stability index
QLQSMPSRELASSNLDIVDLLKKA [M13S] | 3.35
QLQSMPSRELASANLDIVDLLKKA [M13A] | 4
QLQSMPSRELASGNLDIVDLLKKA [M13G] | 3.76
QLQSMPSRELASINLDIVDLLKKA [M13I] | 2.39
QLQSMPSRELASWNLDIVDLLKKA [M13W] | 2.88
QLQSMPSRELASTNLDIVDLLKKA [M13T] | 3.38
QLQSMPSRELASLNLDIVDLLKKA [M13L] | 3.52
QLQSMPSRELASRNLDIVDLLKKA [M13R] | 3.61
QLQSMPSRELASENLDIVDLLKKA [M13E] | 4.19
QLQSMPSRELASNNLDIVDLLKKA [M13N] | 4.17
QLQSMPSRELASKNLDIVDLLKKA [M13K] | 3.8
QLQSMPSRELASFNLDIVDLLKKA [M13F] | 2.97
QLQSMPSRELASVNLDIVDLLKKA [M13V] | 3.7
QLQSMPSRELASMNLDIGDLLKKA [V18G] | 3.65
QLQSMPSRELASMNLDIDDLLKKA [V18D] | 3.96
QLQSMPSRELASMNLDIKDLLKKA [V18K] | 3.21
QLQSMPSRELASMNLDIYDLLKKA [V18Y] | 2.6
QLQSMPSRELASMNLDIEDLLKKA [V18E] | 4.19
QLQSMPSRELASMNLDIPDLLKKA [V18P] | 3.21
QLQSMPSRELASMNLDILDLLKKA [V18L] | 3.37
QLQSMPSRELASMNLDISDLLKKA [V18S] | 4.08
QLQSMPSRELASMNLDIRDLLKKA [V18R] | 2.73
QLQSMPSRELASMNLDIFDLLKKA [V18F] | 2.39
QLQSMPSRELASMNLDIMDLLKKA [V18M] | 3.41

Variant | protein stability index
QLQSMPSRELASMNLDIWDLLKKA [V18W] | 2.61
QLQSMPSRELASMNLDINDLLKKA [V18N] | 3.9
QLQSMPSRELASMNLDITDLLKKA [V18T] | 3.77
QLQSMPSRELASMNLDIIDLLKKA [V18I] | 3.28
QLQSMPSRELASMNLDIHDLLKKA [V18H] | 3.5
QLQSMPSRELASMNLDICDLLKKA [V18C] | 3.69
QLQSMPSRELASMNLDIADLLKKA [V18A] | 4.01
QLQSMPSRELASMNLDIQDLLKKA [V18Q] | 3.89
QLQSMPSRELASMNLDVVDLLKKA [I17V] | 3.89
QLQSMPSRELASMNLDFVDLLKKA [I17F] | 3.63
QLQSMPSRELASMNLDRVDLLKKA [I17R] | 3.4
QLQSMPSRELASMNLDLVDLLKKA [I17L] | 3.34
QLQSMPSRELASMNLDMVDLLKKA [I17M] | 3.39
QLQSMPSRELASMNLDKVDLLKKA [I17K] | 3.23
QLQSMPSRELASMNLDSVDLLKKA [I17S] | 4.37
QLQSMPSRELASMNLDGVDLLKKA [I17G] | 3.46
QLQSMPSRELASMNLDCVDLLKKA [I17C] | 3.87
QLQSMPSRELASMNLDPVDLLKKA [I17P] | 3.39
QLQSMPSRELASMNLDQVDLLKKA [I17Q] | 4.55
QLQSMPSRELASMNLDNVDLLKKA [I17N] | 3.88
QLQSMPSRELASMNLDWVDLLKKA [I17W] | 3.45
QLQSMPSRELASMNLDTVDLLKKA [I17T] | 3.58
QLQSMPSRELASMNLDHVDLLKKA [I17H] | 3.94
QLQSMPSRELASMNLDDVDLLKKA [I17D] | 4.23

Variant | protein stability index
QLQSMPSRELASMNLDYVDLLKKA [I17Y] | 3.74
QLQSMPSRELASMNLDAVDLLKKA [I17A] | 3.63
QLQSMPSYELASMNLDIVDLLKKA [R8Y] | 2.66
QLQSMPSRELASMVLDIVDLLKKA [N14V] | 1.9
QLQSMPSRELASMFLDIVDLLKKA [N14F] | 1.79
QLQSMPSRELASMWLDIVDLLKKA [N14W] | 2.37
QLQSMPSRELASMSLDIVDLLKKA [N14S] | 3.31
QLQSMPSRELASMCLDIVDLLKKA [N14C] | 2.16
QLQSMPSRELASMYLDIVDLLKKA [N14Y] | 2.68
QLQSMPSRELASMTLDIVDLLKKA [N14T] | 3.27
QLQSMPSRELASMQLDIVDLLKKA [N14Q] | 3.3
QLQSMPSRELASMMLDIVDLLKKA [N14M] | 2.63
QLQSMPSRELASMLLDIVDLLKKA [N14L] | 2.6
QLQSMPSRELASMHLDIVDLLKKA [N14H] | 3.01
QLQSMPSRELASMKLDIVDLLKKA [N14K] | 3.75
QLQSMPSRELASMDLDIVDLLKKA [N14D] | 3.92
QLQSMPSRELASMALDIVDLLKKA [N14A] | 2.87
QLQSMPSRELASMGLDIVDLLKKA [N14G] | 3.68
QLQSMPSRELASMILDIVDLLKKA [N14I] | 2.61
QLQSMPSRELASMRLDIVDLLKKA [N14R] | 2.58
QLQSMPSRELASMELDIVDLLKKA [N14E] | 3.62
QLQSMPSRELASMPLDIVDLLKKA [N14P] | 3.78
